Results as given in FireProtDB (doi:10.1021/bi051266r).
Where “and” joins values, the source holds several entries; their conditions need not be identical. Equal values may be shown once.

Details: Saccharolobus solfataricus (strain ATCC 35092 / DSM 1617 / JCM 11322 / P2), Thermal, DSC, Glycine 10 mM, transition: 3, reversible: yes, whole UniProt chain shown

B1: DNA/RNA-binding protein Alba 2 wild type, Q97ZF4 (protein)
chain: MTEKLNEIVVRKTKNVEDHVLDVIVLFNQGIDEVILKGTGREISKAVDVYNSLKDRLGDGVQLVNVQTGSEVRDRRRISYILLRLKRVY
- unfolding enthalpy (calorimetric) (pH 3.2): 20.3 kcal/mol and 42.8 kcal/mol
- unfolding enthalpy (van 't Hoff) (pH 3.2): 39.1 kcal/mol and 85.5 kcal/mol
- Tm (pH 4.2): 116 °C
- unfolding enthalpy (calorimetric) (pH 4.2): 47.8 kcal/mol
- unfolding enthalpy (van 't Hoff) (pH 4.2): 93.5 kcal/mol
- unfolding enthalpy (calorimetric) (pH 4.8): 37.8 kcal/mol and 47.3 kcal/mol
- unfolding enthalpy (van 't Hoff) (pH 4.8): 75.5 kcal/mol and 92.7 kcal/mol
- unfolding enthalpy (calorimetric) (pH 5.6): 44.8 kcal/mol and 56.9 kcal/mol
- unfolding enthalpy (van 't Hoff) (pH 5.6): 95.5 kcal/mol and 105 kcal/mol
- unfolding enthalpy (calorimetric) (pH 7.1): 27 kcal/mol and 44.9 kcal/mol
- unfolding enthalpy (van 't Hoff) (pH 7.1): 172 kcal/mol and 84.7 kcal/mol
